Data from the DeepSol protein solubility set.

Experiment: soluble on expression in E. coli; label from the status in PepcDB or PDB records

Sequence | soluble on expression in E. coli
MSKIASEVVATTLNDWYIAIKKQKVDESIKYYSEIKKLFDEMEEDQEVLAYYSLLEERHKMLLHSSRGEPLQKHTYFTEDNQNFITKTNDKLEYNFYLFEAMYEAYNKNYDRAINLYGLAEKKLAEIPDEIEAAEFYSKVSYLYTLVKQSIVAQHYIKNAISIYKRHPDYKCKLATSTMIAAANYADMKRFEEAEQYYLEAIDIAKETKDEFLKAQLFHNLSIVYSDWNKPDKCIESLEKAIGNESWLHSIYYINSLFMMIKELFKIDEKMKAINFYNKAQERLILMENKVYEAKISILYNLYCGELKNNFNNCISNIEFLKQQNELESVDELSYIAAKRFESIGAFEEATSFFNAKIWAE | soluble
MSKILVFGHQNPDSDAIGSSYAFAYLAREAYGLDTEAVALGEPNEETAFVLDYFGVAAPRVITSAKAEGAEQVILTDHNEFQQSVADIAEVEVYGVVDHHRVANFETASPLYMRLEPVGSASSIVYRMFKEHGVAVPKEIAGLMLSGLISDTLLLKSPTTHPTDKVIAPELAELAGVNLEEYGLAMLKAGTNLASKSAEELIDIDAKTFELNGNNVRVAQVNTVDIAEVLERQAEIEAAIEKAIADNGYSDFVLMITDIINSNSEILAIGSNMDKVEAAFNFVLENNHAFLAGAVSRKKQVVPQLTESFNA | soluble
MSKIRVLSVDDSALMRQIMTEIINSHSDMEMVATAPDPLVARDLIKKFNPDVLTLDVEMPRMDGLDFLEKLMRLRPMPVVMVSSLTGKGSEVTLRALELGAIDFVTKPQLGIREGMLAYSEMIAEKVRTAARARIAAHKPMAAPTTLKAGPLLSSEKLIAIGASTGGTEAIRHVLQPLPLSSPAVIITQHMPPGFTRSFAERLNKLCQISVKEAEDGERVLPGHAYIAPGDKHMELARSGANYQIKIHDGPPVNRHRPSVDVLFHSVAKHAGRNAVGVILTGMGNDGAAGMLAMYQAGAWTIAQNEASCVVFGMPREAINMGGVSEVVDLSQVSQQMLAKISAGQAIRI | soluble
MSKLDLGRVDLLSMLGNSSSAGVDTAKGVIPFSTSGATWAVPRLSEDGITSHFLRRRGYVTMTQGGSRDQNAAVRKILSLIIAYDIQTQACFFISNEESMRITMAETMGVKDRPNARTNSWAEVSDSDINRGIAKALKEGNLTLDENQKDGFMKLVHAFVADILAQSGHYKPVTSVTYFSAPIDMESDYLDPFSIAIIRDVLDDSPFSELRYDARAMSELEDRDVPITRFSRVMAQMGNAMVRNIMVLNEAAQRKLRGLAVVGEIVHGRVRAPVRYLNDSFIQTLRSNINFHLLTRTTPERWAQSWIQAFGSLKGWVDAINGIADATTEEEKKKLAMQTSMDLELLSDLTPLIRDAATSVEKFVTFAPLSFYQGLGSVTQIRALDSSTNLAAVIVRYAAKEINLIPAYQSFQVPTVDVGVKKTAIMDQRLSLQLPEFSEDQFFGMLEQRMQNMSDSEVAELVDRIAKGETPFGDVVKQLPGTSTLLVTNGYYMGGLLTNEDKIIPGDASVPALLYMQAASFASSVRFPPGEYPVFHHESSNGDVRLTDQVSADAQLSHSAVETANPLNFLVACNVSVHTPSIAIDIIEPMPDLTRRGTTEYVHKGEIKVAAIPSLPPKSADRKAQVSRETAKFERVLYKARKGGAQVAAPIDLESLFGIAVNLAVPTVKHVYSPDSKTKLALDIIKGLESEGDKAAATRLLMTLARAYTGTYSSLGLRRRDEITGIAAQPSDVAMQEFALQSGVQTLKAVAKHTGIMEVATIEMVEEKVRSLDDNRFYEIAAEVVLRALKGM | not soluble
MSKLVVIGGGPAGYVAAITAAQNGKNVTLIDEADLGGTCLNVGCMPTKSLLESAEVHDIVRKSNHYGVTLNNGSISIDWKQMQVRKSQIVTQLVQGIQYLMKKNKIKVIQGKAKFETDHRVRVTYGDKEIVVDGEQFIIATGSEPTELPFAPFDGKWILNSTHAMSLKNIPKSLLIVGGGVIGCEFASIYSRLGTKVTIVEMAPQLLPGEDEDIAHILRGKLENDGVKIFTGATLKGLNSYKKQALFEYEGGIQEVNPEFVLVSVGRKPRVQQLNLEKAGIQYSNKGISVNEHMQTNVSHIYAAGDVIGGIQLAHVAFHEGTTAALYASGEDVKVNYHAVPRCIYTAPEIASVGLTEKDAKEQYGDIQIGEFPFTANGKALIIGEQTGKVKVIVEPKYQEIVGISIIGPRATELIGQGTVMIHTEVTADIMRDYIAAHPTLSESIHEALLQAVGHAVHA | not soluble
